{
  "source": "patent US20080160006A1",
  "about": "“Nutrient Medium for Maintaining Neural Cells in Injured Nervous System” (priority 2001, published 2008)",
  "system": "human cortical brain cells (neurons vs glia)",
  "experiment": "Adult human cortical brain cells cultured in B27/Neurobasal A, immunostained for neurofilament and GFAP",
  "assay_type": "cell-based",
  "settings": "added in addition to FGF2, sample 4",
  "source_text": "GENERAL METHODS. Brain tissue was ethically obtained by informed consent from patients before surgery under protocols approved by the Springfield Committee for Research on Human Subjects and the UC Irvine IRB. […] Rather than using aspiration to remove all tissue, slices of tissue 1-3 mm thick were obtained from cortical access ports or tissue that was marginal to the lesion. Use of electrocautery was kept to a minimum to reduce oxyradicals and other neuron damage. […] Hibernate A contains D-glucose, pyruvate, balanced salts, amino acids, and vitamins. B27 contains 5 antioxidants and 15 other components. […] After transport on ice to a laminar flow sterile hood in the culture laboratory, meninges and white matter were removed from the tissue with a scalpel and forceps in a 35 mm dish in 2 ml transport medium. […] The cell suspension was enriched for neurons by centrifugation on a density gradient of Optiprep (Invitrogen). […] The diluted Optiprep was further diluted with transport medium (v/v) to make a gradient containing 4 steps of 1 ml in a 15 ml centrifuge tube: bottom (0.35:0.65), 0.25:0.75, 0.2:0.8, top (0.15:0.85). Up to 6 ml of cell suspension was layered over the Optiprep step gradient. […] Cells were plated at a density of 320/mm^2 onto glass coverslips coated with polylysine as previously described. […]",
  "data": [
    {"molecule": "NT3: trophic factor NT3, recombinant, Regeneron (protein, UniProt P20783 139-257, looked up) Neurotrophin-3: YAEHKSHRGEYSVCDSESLWVTDKSSAIDIRGHQVTVLGEIKTGNSPVKQYFYETRCKEARPVKNGCRGIDDKHWNSQCKTSQTYVRALTSENNKLVGWRWIRIDTSCVCALSRKIGRT", "values": [
      {"measurement": "survival of neurofilament positive cells versus FGF2 alone", "value": "no more efficacious"}
    ]}
  ]
}
